Laboratory results: PMC5290277, “Specialized interfaces of Smc5/6 control hinge stability and DNA association”
Positions count from the first letter of the chain named.

T1: Smc5 hinge Y612A;Smc6 hinge (extended-hinge) (Schizosaccharomyces …, UniProt O13710;P53692 364-692;462-773, Y612A|)
T1 sequence 1: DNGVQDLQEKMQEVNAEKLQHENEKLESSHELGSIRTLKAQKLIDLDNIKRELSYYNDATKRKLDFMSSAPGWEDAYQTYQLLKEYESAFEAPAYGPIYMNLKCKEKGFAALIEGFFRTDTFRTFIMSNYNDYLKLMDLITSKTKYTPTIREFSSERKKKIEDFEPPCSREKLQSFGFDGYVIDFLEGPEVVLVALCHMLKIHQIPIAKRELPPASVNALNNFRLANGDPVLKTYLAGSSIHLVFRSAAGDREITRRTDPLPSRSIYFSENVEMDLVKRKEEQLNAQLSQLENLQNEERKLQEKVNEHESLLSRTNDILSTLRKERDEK
T1 sequence 2: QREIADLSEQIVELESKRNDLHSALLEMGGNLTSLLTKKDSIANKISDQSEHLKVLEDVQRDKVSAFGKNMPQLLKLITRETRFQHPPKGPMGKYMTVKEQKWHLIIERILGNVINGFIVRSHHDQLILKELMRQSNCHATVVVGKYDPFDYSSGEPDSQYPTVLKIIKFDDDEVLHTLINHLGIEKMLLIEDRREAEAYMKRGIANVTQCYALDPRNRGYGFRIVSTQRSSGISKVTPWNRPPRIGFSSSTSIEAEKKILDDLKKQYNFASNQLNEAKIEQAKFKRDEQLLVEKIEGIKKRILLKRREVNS

T2: Smc5 hinge (extended-hinge);Smc6 hinge F528A (Schizosaccharomyces …, UniProt O13710;P53692 364-692;462-773, |F528A)
T2 sequence 1: T1 sequence 1 with A249Y
T2 sequence 2: T1 sequence 2 with F67A

T3: Smc5 hinge (extended-hinge);Smc6 hinge R706C (Schizosaccharomyces …, UniProt O13710;P53692 364-692;462-773, |R706C)
T3 sequence 1: T1 sequence 1 with A249Y
T3 sequence 2: T1 sequence 2 with R245C

T4: Smc5 hinge (extended-hinge);Smc6 hinge (extended-hinge) (Schizosaccharomyces …, UniProt O13710;P53692 364-692;462-773, |)
T4 sequence 1: T1 sequence 1 with A249Y
T4 sequence 2: T1 sequence 2

B1: 15mer (ssDNA)
DNA: GCTCGTCTGGCTCTG
B2: switchSENSE 48mer (ssDNA)
DNA: GTGTGAACCCTCCAACAAAGGTAGCATTTGCCAGCTCTCGTGATGCAG
modifications: 5' HS-(CH2)6 thiol linker

Assays:
[1] = target: T1, Smc5 hinge Y612A;Smc6 hinge …; test: fluorescence polarization; 20 mM HEPES.NaOH pH 7.5, 100 mM NaCl, 1 mM EDTA, 0.5 mM TCEP, room temperature 10 min, 100 nM DNA (FP, EMSA); pull-down same buffer, protein incubation 4 C 30 min; switchSENSE buffer not given; conditions: protein: recombinant;recombinant, tags: N-terminal His6, HRV-3C cleaved;N-terminal StrepII, copies: 1;1, label: 5' fluorescein, single strand
[2] = target: T2, Smc5 hinge (extended-hinge);Smc6 hinge …; test: as above; conditions: protein: recombinant;recombinant, tags: N-terminal His6, HRV-3C cleaved;N-terminal StrepII, copies: 1;1, label: 5' fluorescein, single strand
[3] = target: T3, Smc5 hinge (extended-hinge);Smc6 hinge …; test: as above; conditions: protein: recombinant;recombinant, tags: N-terminal His6, HRV-3C cleaved;N-terminal StrepII, copies: 1;1, label: 5' fluorescein, single strand
[4] = target: T4, Smc5 hinge (extended-hinge);Smc6 hinge …; test: as above; conditions: protein: recombinant;recombinant, tags: N-terminal His6, HRV-3C cleaved;N-terminal StrepII, copies: 1;1, label: 5' fluorescein, single strand
[5] = target: T4, Smc5 hinge (extended-hinge);Smc6 hinge …; test: switchSENSE; biphasic association and dissociation; 20 mM HEPES.NaOH pH 7.5, 100 mM NaCl, 1 mM EDTA, 0.5 mM TCEP, room temperature 10 min, 100 nM DNA (FP, EMSA); pull-down same buffer, protein incubation 4 C 30 min; switchSENSE buffer not given; conditions: protein: recombinant;recombinant, tags: N-terminal His6, HRV-3C cleaved;N-terminal StrepII, copies: 1;1, label: 3' Cy3, single strand, immobilized on gold

Row | Binder | Kd [1] [nM] | Kd [2] [nM] | Kd [3] [nM] | Kd [4] [nM] | binding result [5]
1 | B1 | ~1300 | ~1700 | ~1600 | ~1200 | 
2 | B2 |  |  |  |  | binds
